Measurements published in patent US20220220176.

Tested on: thrombin-cleavable prodrug of human NK1
Sequence (chain, as listed by the source): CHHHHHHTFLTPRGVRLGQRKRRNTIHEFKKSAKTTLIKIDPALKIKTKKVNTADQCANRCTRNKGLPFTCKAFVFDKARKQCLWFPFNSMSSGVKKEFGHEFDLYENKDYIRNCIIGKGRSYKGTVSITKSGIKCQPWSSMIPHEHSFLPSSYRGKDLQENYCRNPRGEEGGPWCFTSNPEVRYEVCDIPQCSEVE

thrombin (Thrombin from human plasma; Sigma-Aldrich Co. LLC)
cleavage of the protease-sensitive peptide and release of human NK1 (SDS electrophoresis, CBB staining): The treatment of each prodrug of human NK1 with the corresponding protease (ADAM17 or thrombin) was found to cleave the protease-sensitive peptide contained in the prodrug of human NK1 so that the active form, human NK1, was released.
